Results taken from doi:10.1101/2024.07.30.605912 (bioRxiv, 2024).

Target: the molecule itself
Experiment: cryo-EM structure

B1: Salmonella typhimurium ArnC (undecaprenyl-phosphate 4-deoxy-4-formamido-L-arabinose transferase) (enzyme)
chain: MFDAAPIKKVSVVIPVYNEQESLPELIRRTTTACESLGKAWEILLIDDGSSDSSAELMVKASQEADSHIISILLNRNYGQHAAIMAGFSHVSGDLIITLDADLQNPPEEIPRLVAKADEGFDVVGTVRQNRQDSLFRKSASKIINLLIQRTTGKAMGDYGCMLRAYRRPIIDTMLRCHERSTFIPILANIFARRATEIPVHHAEREFGDSKYSFMRLINLMYDLVTCLTTTPLRLLSLLGSVIAIGGFSLSVLLIVLRLALGPQWAAEGVFMLFAVLFTFIGAQFIGMGLLGEYIGRIYNDVRARPRYFVQQVIYPESTPFTEESHQ
- stoichiometry N: 4
